Substrate in the data set: CC1=CC(=O)c2ccccc2C1=O
As to the kind of experiment: enzyme kinetics (KM) by BNAH fluorescence decrease; reference substrate. It is filed as biochemical, Homo sapiens. To be noted: FAD; pH 8.5; 37.0 °C.

B1: human quinone reductase 2 (hQR2) (Homo sapiens) (protein)
chain: MAGKKVLIVYAHQEPKSFNGSLKNVAVDELSRQGCTVTVSDLYAMNLEPRATDKDITGTLSNPEVFNYGVETHEAYKQRSLASDITDEQKKVREADLVIFQFPLYWFSVPAILKGWMDRVLCQGFAFDIPGFYDSGLLQGKLALLSVTTGGTAEMYTKTGVNGDSRYFLWPLQHGTLHFCGFKVLAPQISFAPEIASEEERKGMVAAWSQRLQTIWKEEPIPCTAHWHFGQ
notes: 6his-hQR2
The Km is the concentration of substrate that gives half-maximal velocity. With B1, the Michaelis-Menten constant (Km) worked out at 10 ± 1 µM.

Values taken from publication PMC6155775, “Role of Quinone Reductase 2 in the Antimalarial Properties of Indolone-Type Derivatives” (Molecules : A Journal of Synthetic Chemistry and Natural …, 2017).
